Earlier results on 1 substance are cited in PMC6085760.

pKd: −log10 of the molar value.

In the data set the target is Amyloid-β (Homo sapiens) (UniProt P05067).
Chain of Amyloid-β (Homo sapiens) (P05067 672-711): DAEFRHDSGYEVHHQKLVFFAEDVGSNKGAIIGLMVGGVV

As for LPFFD peptide, the pKd (commonly the negative decadic logarithm of the Kd, by convention in mol/L) is 3.81.
